Source: IntAct's records for PubMed 21984795

B1: Biopolymer transport protein ExbD (Escherichia coli (strain K12)), P0ABV2 (parent)
chain: MAMHLNENLDDNGEMHDINVTPFIDVMLVLLIIFMVAAPLATVDVKVNLPASTSTPQPRPEKPVYLSVKADNSMFIGNDPVTDETMITALNALTEGKKDTTIFFRADKTVDYETLMKVMDTLHQAGYLKIGLVGEETAKAK
B2: Biopolymer transport protein ExbD (Escherichia coli (strain K12)), P0ABV2 (parent)
chain: B1 chain
partner: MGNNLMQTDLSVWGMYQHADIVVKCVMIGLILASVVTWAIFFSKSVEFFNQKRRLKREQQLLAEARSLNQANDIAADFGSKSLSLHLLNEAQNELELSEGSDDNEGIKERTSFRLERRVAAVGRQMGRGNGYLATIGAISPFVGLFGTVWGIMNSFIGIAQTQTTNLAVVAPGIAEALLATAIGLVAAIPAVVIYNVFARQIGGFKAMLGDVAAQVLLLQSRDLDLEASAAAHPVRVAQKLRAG

Variants of: B1
Conditions: with tonb_ecoli tonB

Row | effect of a mutation on the interaction | Variant
1 | increasing interaction | D120C
2 | increasing interaction | I102C
3 | increasing interaction | E113C
4 | increasing interaction | D111C
5 | increasing interaction | G96C
6 | increasing interaction | T109C
7 | increasing interaction | Y112C
8 | increasing interaction | D107C
9 | increasing interaction | V110C
10 | increasing interaction | K108C
11 | increasing interaction | M116C
12 | increasing interaction | A92C

Variants of: B2
Conditions: with exbb_ecoli exbB

Row | effect of a mutation on the interaction | Variant
13 | increasing interaction | K108C
14 | disrupting interaction | D25N
15 | increasing interaction | E113C
16 | increasing interaction | M116C
17 | increasing interaction | Y112C
